Test results published in patent EP4714972A1.
Changes are numbered by the printed parent chain. Values belong to the binder of their own block, whether it stands above or below them.

Columns and labels:
[1] = target: CD38 antigen (human-derived CD38 antigen protein) (human) (UniProt P28907); test: phage ELISA on coated CD38 antigen; control well (PVA) OD 0.13
[2] = target: CD38 antigen (human-derived CD38 antigen protein) (human) (UniProt P28907); test: phage ELISA on coated CD38 antigen; control well (PVA) OD 0.18
[3] = target: CD38 antigen (human-derived CD38 antigen protein) (human) (UniProt P28907); test: phage ELISA on coated CD38 antigen; control well (PVA) OD 0.04
[4] = target: CD38 antigen (human-derived CD38 antigen protein) (human) (UniProt P28907); test: phage ELISA on coated CD38 antigen; control well (PVA) OD 0.05

B2: B2 alpaca antibody (anti-CD38 single-domain antibody) (VHH)
VHH: QVQLVESGGGLVQPGGSLTLSCRASGFTLDYYAIGWFRQAPGKEREAIACIDITGFHTNYGDSVSGRFTISRDNAGTTVYLQMNSLEAEDTGIYYCAPARYAACSALDVKLSFTSWGQGTQVTVSS
OD value of the antigen well (Pro) [2]: 1.07 OD

B4: B3 alpaca antibody (anti-CD38 single-domain antibody) (VHH)
VHH: QVQLVESGGGLVQAGGSLRLACTASGNIFASQVMNWYRQAPGSPRELVATITPGGRTTYADSAKGRFTVATDNAKATAYLQLTSLTPEDTGVYYCHVRLFPATDYWGQGTQVTVSS
OD value of the antigen well (Pro) [4]: 0.15 OD

B5: B1 alpaca antibody (anti-CD38 single-domain antibody) (VHH)
VHH: QVQLVESGGGEVQPGGSLRLSCTASGFRLDYYAIGWFRRAPGKEREGIACIDITGIHTNYGDSVMGRFTISRDDRAVYLQMNNLEAGDTAIYYCAPARFSACSALDVKLSFTSWGQGTQVTVSS
OD value of the antigen well (Pro) [2]: 0.65 OD

Now from value to binder:

OD value of the antigen well (Pro) [1]: 0.89 OD
B1: B5 alpaca antibody (anti-CD38 single-domain antibody) (VHH)
VHH: QVQLVESGGGLVQPGGSLRLSCTASGFRLDYYAIGWFRQAPGKEREAISCIDITGMHTNYGDSVMGRFTISRDDAKRTVYLQMNSLEAEDTGIYYCAPAQYAACSALGVKVSFTSWGQGTQVTVSP

OD value of the antigen well (Pro) [3]: 1.77 OD
B3: B8 alpaca antibody (anti-CD38 single-domain antibody) (VHH)
VHH: B2 VHH with T19R, R23T, T28R
